Measured values as given in patent publication US20240270846A1 (published 2024).
Changes are numbered by the printed parent chain. Numbers in names are those of the source.

B1: GLS3000 N28M (Kabat) L chain altered form, one-arm antibody with CE115HA000 (antibody, human IgG1, kappa, L234A L235A, N297A, name in Kabat numbering)
heavy: QVQLVESGGGVVQPGRSLRLSCAASGFTFSNAWMHWVRQAPGKGLEWVAQIKAKSNNYATYYAESVKGRFTISRDDSKNSLYLQMNSLKTEDTAVYYCRYVHYGAYYGVDAWGQGTTVTVSSASTKGPSVFPLAPSSKSTSGGTAALGCLVKDYFPEPVTVSWNSGALTSGVHTFPAVLQSSGLYSLSSVVTVPSSSLGTQTYICNVNHKPSNTKVDKKVEPKSCDKTHTCPPCPAPEAAGGPSVFLFPPKPKDTLMISRTPEVTCVVVDVSHEDPEVKFNWYVDGVEVHNAKTKPREEQYASTYRVVSVLTVLHQDWLNGKEYKCKVSNKALPAPIEKTISKAKGQPREPQVYTLPPSRCELTKNQVSLSCAVKGFYPSDIAVEWESNGQPENNYKTTPPVLDSDGSFFLVSKLTVDKSRWQQGNVFSCSVMHEALHNHYTQKSLSLSPDYKDDDDK
chain: EPKSSDKTHTCPPCPAPELLGGPSVFLFPPKPKDTLMISRTPEVTCVVVDVSHEDPEVKFNWYVDGVEVHNAKTKPREEQYNSTYRVVSVLTVLHQDWLNGKEYKCKVSNKALPAPIEKTISKAKGQPREPQVCTLPPSRDELTKNQVSLWCLVKGFYPSDIAVEWESNGQPENNYKTTPPVLDSDGSFFLYSKLTVDKSRWQQGNVFSCSVMHEALHNRYTQKSLSLSP
light: DIVMTQSPLSLPVTPGEPASISCRSSQSLVHSMRNTYLHWYQQKPGQAPRLLIYKVSNRFSGVPDRFSGSGSGTDFTLKISRVEAEDVGVYYCGQGTQVPYTFGQGTKLEIKRTVAAPSVFIFPPSDEQLKSGTASVVCLLNNFYPREAKVQWKVDNALQSGNSQESVTEQDSKDSTYSLSSTLTLSKADYEKHKVYACEVTHQGLSSPVTKSFNRGEC
notes: one-arm antibody
B2: GLS3000 N28P (Kabat) L chain altered form, one-arm antibody with CE115HA000 (antibody, human IgG1, kappa, L234A L235A, N297A, name in Kabat numbering)
heavy: B1 heavy
chain: B1 chain
light: B1 light with M33P
notes: one-arm antibody
B3: GLS3000 N28Q (Kabat) L chain altered form, one-arm antibody with CE115HA000 (antibody, human IgG1, kappa, L234A L235A, N297A, name in Kabat numbering)
heavy: B1 heavy
chain: B1 chain
light: B1 light with M33Q
notes: one-arm antibody
B4: GLS3000 N28S (Kabat) L chain altered form, one-arm antibody with CE115HA000 (antibody, human IgG1, kappa, L234A L235A, N297A, name in Kabat numbering)
heavy: B1 heavy
chain: B1 chain
light: B1 light with M33S
notes: one-arm antibody
B5: GLS3000 N28T (Kabat) L chain altered form, one-arm antibody with CE115HA000 (antibody, human IgG1, kappa, L234A L235A, N297A, name in Kabat numbering)
heavy: B1 heavy
chain: B1 chain
light: B1 light with M33T
notes: one-arm antibody
B6: GLS3000 N28V (Kabat) L chain altered form, one-arm antibody with CE115HA000 (antibody, human IgG1, kappa, L234A L235A, N297A, name in Kabat numbering)
heavy: B1 heavy
chain: B1 chain
light: B1 light with M33V
notes: one-arm antibody
B7: GLS3000 N28W (Kabat) L chain altered form, one-arm antibody with CE115HA000 (antibody, human IgG1, kappa, L234A L235A, N297A, name in Kabat numbering)
heavy: B1 heavy
chain: B1 chain
light: B1 light with M33W
notes: one-arm antibody
B8: GLS3000 N28Y (Kabat) L chain altered form, one-arm antibody with CE115HA000 (antibody, human IgG1, kappa, L234A L235A, N297A, name in Kabat numbering)
heavy: B1 heavy
chain: B1 chain
light: B1 light with M33Y
notes: one-arm antibody
B9: GLS3000 N30A (Kabat) L chain altered form, one-arm antibody with CE115HA000 (antibody, human IgG1, kappa, L234A L235A, N297A, name in Kabat numbering)
heavy: B1 heavy
chain: B1 chain
light: B1 light with M33N, N35A
notes: one-arm antibody
B10: GLS3000 N30D (Kabat) L chain altered form, one-arm antibody with CE115HA000 (antibody, human IgG1, kappa, L234A L235A, N297A, name in Kabat numbering)
heavy: B1 heavy
chain: B1 chain
light: B1 light with M33N, N35D
notes: one-arm antibody
B11: GLS3000 N30E (Kabat) L chain altered form, one-arm antibody with CE115HA000 (antibody, human IgG1, kappa, L234A L235A, N297A, name in Kabat numbering)
heavy: B1 heavy
chain: B1 chain
light: B1 light with M33N, N35E
notes: one-arm antibody
B12: GLS3000 N30G (Kabat) L chain altered form, one-arm antibody with CE115HA000 (antibody, human IgG1, kappa, L234A L235A, N297A, name in Kabat numbering)
heavy: B1 heavy
chain: B1 chain
light: B1 light with M33N, N35G
notes: one-arm antibody
B13: GLS3000 N30H (Kabat) L chain altered form, one-arm antibody with CE115HA000 (antibody, human IgG1, kappa, L234A L235A, N297A, name in Kabat numbering)
heavy: B1 heavy
chain: B1 chain
light: B1 light with M33N, N35H
notes: one-arm antibody
B14: GLS3000 N30I (Kabat) L chain altered form, one-arm antibody with CE115HA000 (antibody, human IgG1, kappa, L234A L235A, N297A, name in Kabat numbering)
heavy: B1 heavy
chain: B1 chain
light: B1 light with M33N, N35I
notes: one-arm antibody
B15: GLS3000 N30K (Kabat) L chain altered form, one-arm antibody with CE115HA000 (antibody, human IgG1, kappa, L234A L235A, N297A, name in Kabat numbering)
heavy: B1 heavy
chain: B1 chain
light: B1 light with M33N, N35K
notes: one-arm antibody
B16: GLS3000 N30L (Kabat) L chain altered form, one-arm antibody with CE115HA000 (antibody, human IgG1, kappa, L234A L235A, N297A, name in Kabat numbering)
heavy: B1 heavy
chain: B1 chain
light: B1 light with M33N, N35L
notes: one-arm antibody
B17: GLS3000 N30M (Kabat) L chain altered form, one-arm antibody with CE115HA000 (antibody, human IgG1, kappa, L234A L235A, N297A, name in Kabat numbering)
heavy: B1 heavy
chain: B1 chain
light: B1 light with M33N, N35M
notes: one-arm antibody
B18: GLS3000 N30P (Kabat) L chain altered form, one-arm antibody with CE115HA000 (antibody, human IgG1, kappa, L234A L235A, N297A, name in Kabat numbering)
heavy: B1 heavy
chain: B1 chain
light: B1 light with M33N, N35P
notes: one-arm antibody
B19: GLS3000 N30Q (Kabat) L chain altered form, one-arm antibody with CE115HA000 (antibody, human IgG1, kappa, L234A L235A, N297A, name in Kabat numbering)
heavy: B1 heavy
chain: B1 chain
light: B1 light with M33N, N35Q
notes: one-arm antibody
B20: GLS3000 N30R (Kabat) L chain altered form, one-arm antibody with CE115HA000 (antibody, human IgG1, kappa, L234A L235A, N297A, name in Kabat numbering)
heavy: B1 heavy
chain: B1 chain
light: B1 light with M33N, N35R
notes: one-arm antibody
B21: GLS3000 N30S (Kabat) L chain altered form, one-arm antibody with CE115HA000 (antibody, human IgG1, kappa, L234A L235A, N297A, name in Kabat numbering)
heavy: B1 heavy
chain: B1 chain
light: B1 light with M33N, N35S
notes: one-arm antibody
B22: GLS3000 N30T (Kabat) L chain altered form, one-arm antibody with CE115HA000 (antibody, human IgG1, kappa, L234A L235A, N297A, name in Kabat numbering)
heavy: B1 heavy
chain: B1 chain
light: B1 light with M33N, N35T
notes: one-arm antibody
B23: GLS3000 N30V (Kabat) L chain altered form, one-arm antibody with CE115HA000 (antibody, human IgG1, kappa, L234A L235A, N297A, name in Kabat numbering)
heavy: B1 heavy
chain: B1 chain
light: B1 light with M33N, N35V
notes: one-arm antibody
B24: GLS3000 N30W (Kabat) L chain altered form, one-arm antibody with CE115HA000 (antibody, human IgG1, kappa, L234A L235A, N297A, name in Kabat numbering)
heavy: B1 heavy
chain: B1 chain
light: B1 light with M33N, N35W
notes: one-arm antibody
B25: GLS3000 N30Y (Kabat) L chain altered form, one-arm antibody with CE115HA000 (antibody, human IgG1, kappa, L234A L235A, N297A, name in Kabat numbering)
heavy: B1 heavy
chain: B1 chain
light: B1 light with M33N, N35Y
notes: one-arm antibody
B26: GLS3000 N53A (Kabat) L chain altered form, one-arm antibody with CE115HA000 (antibody, human IgG1, kappa, L234A L235A, N297A, name in Kabat numbering)
heavy: B1 heavy
chain: B1 chain
light: B1 light with M33N, N58A
notes: one-arm antibody
B27: GLS3000 Q27D (Kabat) L chain altered form, one-arm antibody with CE115HA000 (antibody, human IgG1, kappa, L234A L235A, N297A, name in Kabat numbering)
heavy: B1 heavy
chain: B1 chain
light: B1 light with Q27D, M33N
notes: one-arm antibody
B28: GLS3000 Q27E (Kabat) L chain altered form, one-arm antibody with CE115HA000 (antibody, human IgG1, kappa, L234A L235A, N297A, name in Kabat numbering)
heavy: B1 heavy
chain: B1 chain
light: B1 light with Q27E, M33N
notes: one-arm antibody
B29: GLS3000 Q27L (Kabat) L chain altered form, one-arm antibody with CE115HA000 (antibody, human IgG1, kappa, L234A L235A, N297A, name in Kabat numbering)
heavy: B1 heavy
chain: B1 chain
light: B1 light with Q27L, M33N
notes: one-arm antibody
B30: GLS3000 Q27P (Kabat) L chain altered form, one-arm antibody with CE115HA000 (antibody, human IgG1, kappa, L234A L235A, N297A, name in Kabat numbering)
heavy: B1 heavy
chain: B1 chain
light: B1 light with Q27P, M33N
notes: one-arm antibody
B31: GLS3000 Q27R (Kabat) L chain altered form, one-arm antibody with CE115HA000 (antibody, human IgG1, kappa, L234A L235A, N297A, name in Kabat numbering)
heavy: B1 heavy
chain: B1 chain
light: B1 light with Q27R, M33N
notes: one-arm antibody
B32: GLS3000 R24A (Kabat) L chain altered form, one-arm antibody with CE115HA000 (antibody, human IgG1, kappa, L234A L235A, N297A, name in Kabat numbering)
heavy: B1 heavy
chain: B1 chain
light: B1 light with R24A, M33N
notes: one-arm antibody
B33: GLS3000 R24D (Kabat) L chain altered form, one-arm antibody with CE115HA000 (antibody, human IgG1, kappa, L234A L235A, N297A, name in Kabat numbering)
heavy: B1 heavy
chain: B1 chain
light: B1 light with R24D, M33N
notes: one-arm antibody
B34: GLS3000 R24E (Kabat) L chain altered form, one-arm antibody with CE115HA000 (antibody, human IgG1, kappa, L234A L235A, N297A, name in Kabat numbering)
heavy: B1 heavy
chain: B1 chain
light: B1 light with R24E, M33N
notes: one-arm antibody

target: T1, CD3 epsilon homodimer protein (UniProt P07766 23-126); assay: SPR Biacore T200, CD3 epsilon homodimer immobilized; vs unaltered GLS3000;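 note: antibody variants flowed as analyte over CD3 epsilon homodimer amine-coupled to a CM4 chip, at 25 °C in HBS-EP+ running buffer, fitted with Biacore T200 Evaluation Software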
T1 construct: construct not described; homodimer as printed; also called CD3 (CD3 epsilon)
T1 sequence (P07766 23-126): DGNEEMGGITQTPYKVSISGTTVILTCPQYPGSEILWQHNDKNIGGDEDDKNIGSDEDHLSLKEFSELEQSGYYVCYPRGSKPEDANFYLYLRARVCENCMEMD

In order of rising “KD ratio to GLS3000 (Affinity up)” value:
1. B26  0.82
2. B33  0.83
3. B29  0.86
4. B27  0.89
5. B34  0.89
6. B24  0.97
7. B28  0.99
8. B19  1
9. B32  1
10. B25  1.03
11. B31  1.06
12. B13  1.08
13. B9  1.16
14. B16  1.19
15. B17  1.2
16. B14  1.24
17. B15  1.35
18. B20  1.73
19. B12  2.1
20. B30  2.16
21. B23  2.62
22. B5  2.67
23. B11  2.83
24. B7  3.17
25. B1  3.29
26. B3  3.48
27. B6  3.73
28. B10  3.82
29. B8  3.89
30. B2  4.18
31. B4  4.3
32. B21  10.6
33. B18  12.1
34. B22  12.7
